The results in this text go back to patent US20170174789A1 (Regeneron, published 2017).

One assay concerns the target T1, hTie2 (EGF) (human, UniProt Q02763 210-344).
T1 construct: Domain-deletion construct linked to Luminex beads
In words: Luminex bead binding. On the procedure:
(§1) For binding, 25 μl of anti-Tie2 antibody (25 μg/ml) was added to 75 μl of the above created Luminex bead mixture (3×10³ beads per construct) in binding buffer (PBS, 0.05% Tween 20, 1 mg/ml BSA, 0.05% sodium azide) into a 96 well filter plate (Millipore). Incubation was at room temperature (RT) for 90 min or overnight at 4° C. with shaking. The beads were washed 3× with washing buffer (PBS+0.05% Tween 20) resuspended in 100 μl binding buffer containing PE (phycoerythrine)-labeled anti human kappa or PE-labeled anti mouse Fab secondary antibody and incubated at RT for 45 min with shaking. Samples were washed 2× more and binding signal (MFI) for each bead was determined using a Luminex L200 or FLEXMAP3D instrument. Bead linked human Tie2 was used as positive control and bead linked human Tie1 was used to measure family cross-reactivity. In general MFI signals greater than 500 units represent significant binding.

The target of a further assay is T2, hTie2 (Ig1-Ig2-EGF) (human, UniProt Q02763 24-344).
T2 construct: Domain-deletion construct; also used for H/D exchange
In words: Luminex bead binding. On the procedure: as §1

The next assay deals with T3, hTie2 (Ig2-EGF) (human, UniProt Q02763 121-344).
T3 construct: Domain-deletion construct linked to Luminex beads
T3 sequence (Q02763 other isoform, or with tags, fused parts or gaps limits assumed): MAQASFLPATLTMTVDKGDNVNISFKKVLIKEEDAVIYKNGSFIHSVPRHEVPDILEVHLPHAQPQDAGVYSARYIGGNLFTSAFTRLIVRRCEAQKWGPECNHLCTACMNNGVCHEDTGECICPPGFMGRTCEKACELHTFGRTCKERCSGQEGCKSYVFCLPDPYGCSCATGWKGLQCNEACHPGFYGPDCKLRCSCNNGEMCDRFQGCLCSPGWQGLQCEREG
The assay is described as follows: Luminex bead binding. Here is the method: as §1

For a further assay, the target named is T4, hTie2-mFc (human).
T4 chain: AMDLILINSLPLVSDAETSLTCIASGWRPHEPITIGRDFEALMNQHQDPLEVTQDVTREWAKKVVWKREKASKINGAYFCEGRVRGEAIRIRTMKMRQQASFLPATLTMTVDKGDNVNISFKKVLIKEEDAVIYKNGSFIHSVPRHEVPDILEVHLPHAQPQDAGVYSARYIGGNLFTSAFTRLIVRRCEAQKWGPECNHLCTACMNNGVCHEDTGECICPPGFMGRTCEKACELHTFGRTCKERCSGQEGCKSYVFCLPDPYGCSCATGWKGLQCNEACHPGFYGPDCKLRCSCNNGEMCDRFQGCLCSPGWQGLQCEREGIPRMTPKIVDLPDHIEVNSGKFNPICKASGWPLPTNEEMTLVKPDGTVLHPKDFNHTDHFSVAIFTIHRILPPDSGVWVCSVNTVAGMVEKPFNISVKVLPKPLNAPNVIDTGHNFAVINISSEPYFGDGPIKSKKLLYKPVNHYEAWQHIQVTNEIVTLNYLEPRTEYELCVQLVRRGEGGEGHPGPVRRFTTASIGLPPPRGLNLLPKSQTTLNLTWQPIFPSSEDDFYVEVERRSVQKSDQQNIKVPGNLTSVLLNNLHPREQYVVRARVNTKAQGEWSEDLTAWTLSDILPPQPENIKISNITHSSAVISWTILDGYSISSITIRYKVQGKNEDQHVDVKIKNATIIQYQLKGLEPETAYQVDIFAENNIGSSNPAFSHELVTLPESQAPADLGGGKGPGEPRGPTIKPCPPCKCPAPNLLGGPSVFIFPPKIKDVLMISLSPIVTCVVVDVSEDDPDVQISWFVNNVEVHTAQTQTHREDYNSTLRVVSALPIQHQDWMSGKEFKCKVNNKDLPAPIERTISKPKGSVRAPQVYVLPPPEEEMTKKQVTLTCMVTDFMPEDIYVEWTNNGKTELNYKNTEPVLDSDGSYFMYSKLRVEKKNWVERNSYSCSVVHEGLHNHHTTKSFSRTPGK
In words: Luminex beads, 25 ug/ml mAb. On the procedure: as §1

In the next assay the target is T5, hTie2 (FN) (human, UniProt Q02763 445-730).
T5 construct: also called hTie2 (FN)-hFc
T5 sequence (Q02763 445-730 limits assumed): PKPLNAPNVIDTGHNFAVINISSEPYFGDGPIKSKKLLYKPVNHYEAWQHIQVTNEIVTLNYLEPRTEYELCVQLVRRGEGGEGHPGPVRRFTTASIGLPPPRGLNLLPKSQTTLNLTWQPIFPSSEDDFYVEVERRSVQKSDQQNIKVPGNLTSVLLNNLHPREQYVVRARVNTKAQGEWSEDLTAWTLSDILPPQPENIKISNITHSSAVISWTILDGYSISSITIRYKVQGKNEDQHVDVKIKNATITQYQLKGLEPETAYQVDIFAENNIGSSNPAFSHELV
In words: Luminex beads, 25 ug/ml mAb. On the procedure: as §1

Another assay concerns the target T6, hTie2 (Ig3-FN) (human, UniProt Q02763 350-730).
T6 construct: also called hTie2 (Ig3, FN)-hFc
The assay is described as follows: Luminex beads, 25 ug/ml mAb. Here is the method: as §1

For the next assay, the target named is T7, hTie2-His (human, UniProt Q02763 23-745).
T7 construct: also called ecto-Tie2 fused to 6xHis; biotin-Tie2-His
In words: blocking ELISA: antibody premixed with 0.8 nM biotin-hTie2-His, binding to plate-coated Bow-Ang2. On the procedure:
Tie2 is known to interact with angiopoietins (Ang1, Ang2, Ang3 and Ang4). An initial set of experiments was therefore conducted to evaluate the ability of anti-Tie2 antibodies to block Tie2 binding to Ang2. In this first set of experiments, a quantitative blocking immunoassay was utilized. Briefly, solutions of 0.8 nM biotinylated ecto-Tie2 fused to 6×His (SEQ ID NO:2) were premixed with anti-Tie2 antibody ranging from ˜50 nM to 0 nM in serial dilutions. After a 1-hour incubation at room temperature, the amount of Tie2-His bound to plate coated Bow-Ang2 was measured by sandwich ELISA. Bow-Ang2 (SEQ ID NO:13), an Ang2 construct that comprises the Fc domain of hIgG1 flanked by one FD domain of Ang2 at both termini, was coated at 2 μg/ml on a 96 well microtiter plate and blocked with BSA. Plate-bound biotin-Tie2-His was detected using HRP conjugated streptavidin, and developed using BD OptEIA™ (BD Biosciences Pharmingen, San Diego, Calif.). Signals of OD₄₅₀ nm were recorded and data was analyzed using GraphPad Prism to calculate IC₅₀ values. IC₅₀s were defined as the amount of antibody required to reduce 50% of biotin-Tie2-His detectable to plate bound Bow-Ang2 ligand. In Table 9, an antibody is designated an “enhancer” if the addition of the antibody increases the amount of Tie2-His bound to the Bow-Ang2-coated surface relative to the no antibody control.
A general note: ELISA stands for enzyme-linked immunosorbent assay.

T6 sequence (Q02763 350-730 limits assumed): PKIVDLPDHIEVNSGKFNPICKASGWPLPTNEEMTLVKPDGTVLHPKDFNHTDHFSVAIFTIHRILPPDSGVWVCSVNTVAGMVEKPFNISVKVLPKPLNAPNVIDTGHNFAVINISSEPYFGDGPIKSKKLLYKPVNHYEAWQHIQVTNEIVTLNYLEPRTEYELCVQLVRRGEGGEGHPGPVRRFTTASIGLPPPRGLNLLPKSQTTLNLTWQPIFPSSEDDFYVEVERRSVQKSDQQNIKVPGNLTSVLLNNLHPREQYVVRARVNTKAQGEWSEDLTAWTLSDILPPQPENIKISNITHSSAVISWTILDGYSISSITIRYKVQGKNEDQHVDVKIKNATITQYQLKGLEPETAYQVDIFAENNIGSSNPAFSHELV
T1 sequence (Q02763 other isoform, or with tags, fused parts or gaps limits assumed): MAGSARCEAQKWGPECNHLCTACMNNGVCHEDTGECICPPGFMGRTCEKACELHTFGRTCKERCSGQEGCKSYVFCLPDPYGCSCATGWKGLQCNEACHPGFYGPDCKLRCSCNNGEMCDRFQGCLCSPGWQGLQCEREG

B1: H1H2339B (antibody, V domains shown)
VH: EVQLVESGGGLVQPGGSLRLSCAASGFTFSSYAMNWVRQAPGKGLEWVSSISGSGGNTYYADSVKGRFTISRDNSKNTLYLQLNSLRAEDTAVYYCAKDHSLSWYRNVFDIWGQGTMVTVSS
VL: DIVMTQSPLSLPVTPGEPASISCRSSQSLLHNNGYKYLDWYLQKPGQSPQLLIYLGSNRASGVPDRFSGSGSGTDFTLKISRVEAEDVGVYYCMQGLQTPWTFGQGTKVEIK
notes: Tested as H1H2339B (human IgG format, H1H prefix)
Take B1: the binding result with hTie2 (EGF), in the assay with hTie2 (Ig1-Ig2-EGF) and with hTie2 (Ig2-EGF) was “no binding (tested: MFI >500 = significant binding)” in each case. Besides, the MFI with hTie2-mFc stood at 2910 MFI; with hTie2 (FN), 4530 MFI; with hTie2 (Ig3-FN), 3840 MFI. For the same molecule, the IC50 with hTie2-His turned out to be 189 pM.

B2: H1H2340B (antibody, V domains shown)
VH: EVQLVESGGGLVQPGGSLRLSCAASGFTFSRYWMSWVRQAPGMGLEWVANIKQDGSEKNYVDSVKGRFTVSRDNAKNSLYLQMNSLRAEDTAVYYCASAIFGVVITSYWGQGTLVTVSS
VL: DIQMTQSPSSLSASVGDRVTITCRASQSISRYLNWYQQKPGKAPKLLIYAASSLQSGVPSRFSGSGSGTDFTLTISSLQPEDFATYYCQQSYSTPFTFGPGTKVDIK
notes: Tested as H1H2340B (human IgG format, H1H prefix); also called HIH2340B
As to B2, the binding result in the assay with hTie2 (EGF), with hTie2 (Ig1-Ig2-EGF) and with hTie2 (Ig2-EGF) was “no binding (tested: MFI >500 = significant binding)” each time. The MFI is 3010 MFI in the assay with hTie2-mFc, 5150 MFI with hTie2 (FN) and 4600 MFI in the assay with hTie2 (Ig3-FN). This molecule also returned an IC50 with hTie2-His of 1030 pM.

For orientation: IC50 means the midpoint of a concentration-inhibition curve. Lower therefore signals greater potency.
